PMC11986143 (Nature Communications, 2025)
[ ]: non-standard residue; d: D form.

Biological target: integrin αvβ3 on bEnd.3 vesicles (mouse (endogenous in bEnd.3), UniProt P43406 31-1044; O54890 26-787)
Assay: SPR

Sequence of integrin αvβ3 on bEnd.3 vesicles (P43406 31-1044, chain 1 of 2): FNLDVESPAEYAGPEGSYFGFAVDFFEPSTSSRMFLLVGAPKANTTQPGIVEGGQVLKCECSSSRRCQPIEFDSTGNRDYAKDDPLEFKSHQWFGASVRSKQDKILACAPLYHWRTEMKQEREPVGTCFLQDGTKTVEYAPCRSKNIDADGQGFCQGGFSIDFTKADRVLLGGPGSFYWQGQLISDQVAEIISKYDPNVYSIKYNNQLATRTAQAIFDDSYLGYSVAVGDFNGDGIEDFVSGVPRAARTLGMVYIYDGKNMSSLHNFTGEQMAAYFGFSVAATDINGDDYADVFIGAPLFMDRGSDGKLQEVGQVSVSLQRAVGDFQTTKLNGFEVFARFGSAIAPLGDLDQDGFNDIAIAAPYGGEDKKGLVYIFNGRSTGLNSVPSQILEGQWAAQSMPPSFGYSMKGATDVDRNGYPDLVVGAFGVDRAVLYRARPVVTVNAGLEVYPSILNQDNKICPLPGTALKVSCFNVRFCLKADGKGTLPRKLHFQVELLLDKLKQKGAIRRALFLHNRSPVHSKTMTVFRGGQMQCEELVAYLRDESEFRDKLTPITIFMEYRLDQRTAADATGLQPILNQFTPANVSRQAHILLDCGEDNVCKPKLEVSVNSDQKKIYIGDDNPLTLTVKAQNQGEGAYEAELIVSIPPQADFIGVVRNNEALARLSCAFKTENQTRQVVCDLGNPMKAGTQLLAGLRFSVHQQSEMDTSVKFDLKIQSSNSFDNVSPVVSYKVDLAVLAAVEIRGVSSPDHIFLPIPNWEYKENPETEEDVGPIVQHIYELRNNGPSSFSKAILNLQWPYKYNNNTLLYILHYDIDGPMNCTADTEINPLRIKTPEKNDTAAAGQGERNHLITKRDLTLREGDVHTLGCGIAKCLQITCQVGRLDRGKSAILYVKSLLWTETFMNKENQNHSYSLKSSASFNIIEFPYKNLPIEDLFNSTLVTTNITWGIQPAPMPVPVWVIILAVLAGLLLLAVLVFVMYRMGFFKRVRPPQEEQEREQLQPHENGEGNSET
Sequence of integrin αvβ3 on bEnd.3 vesicles (O54890 26-787, chain 2 of 2): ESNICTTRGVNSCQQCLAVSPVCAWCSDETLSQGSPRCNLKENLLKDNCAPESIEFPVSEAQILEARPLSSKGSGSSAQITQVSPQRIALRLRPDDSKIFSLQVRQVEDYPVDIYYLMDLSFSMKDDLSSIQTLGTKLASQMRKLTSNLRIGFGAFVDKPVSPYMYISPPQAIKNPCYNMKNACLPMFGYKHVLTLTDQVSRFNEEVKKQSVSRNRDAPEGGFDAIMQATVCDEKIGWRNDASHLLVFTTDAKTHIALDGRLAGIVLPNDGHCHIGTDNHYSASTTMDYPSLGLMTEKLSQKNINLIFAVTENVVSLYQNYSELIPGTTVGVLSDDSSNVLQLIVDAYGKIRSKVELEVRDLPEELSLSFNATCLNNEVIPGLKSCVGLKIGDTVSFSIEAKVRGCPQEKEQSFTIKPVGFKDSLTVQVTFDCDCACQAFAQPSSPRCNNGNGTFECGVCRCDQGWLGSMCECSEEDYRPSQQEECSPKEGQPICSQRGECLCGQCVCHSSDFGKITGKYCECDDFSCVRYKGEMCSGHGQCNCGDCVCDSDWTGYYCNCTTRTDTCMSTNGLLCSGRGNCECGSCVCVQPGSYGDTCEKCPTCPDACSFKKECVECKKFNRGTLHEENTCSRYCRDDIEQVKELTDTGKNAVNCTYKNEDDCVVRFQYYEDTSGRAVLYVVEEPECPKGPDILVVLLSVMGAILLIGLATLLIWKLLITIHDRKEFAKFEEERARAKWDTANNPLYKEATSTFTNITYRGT

- Kd: 17.1 µM
Binder: cyclo(RGD[dY]K) [c(RGDyK) peptide]
